Measurements published in patent US20250264433A1 (STATE OF ISRAEL MINISTRY OF AGRICULTURE AND RURAL …, published 2025).

Target: Native EspB of wild-type EPEC O127:H6 strain E2348/69
Sequence (Q05129 whole entry): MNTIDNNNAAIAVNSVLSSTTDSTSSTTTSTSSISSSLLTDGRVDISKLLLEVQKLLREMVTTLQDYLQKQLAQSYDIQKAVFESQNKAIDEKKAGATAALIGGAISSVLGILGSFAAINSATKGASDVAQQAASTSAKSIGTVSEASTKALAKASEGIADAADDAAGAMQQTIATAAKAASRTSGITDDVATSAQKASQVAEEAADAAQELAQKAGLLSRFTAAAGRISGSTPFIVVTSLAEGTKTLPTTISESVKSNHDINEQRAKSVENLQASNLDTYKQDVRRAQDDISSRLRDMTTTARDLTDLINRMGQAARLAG

B1: mAb-EspB-B7 (antibody, V domains shown)
VH: EVQLLESGGGLVQPGGSLRLSCAASGFTFSHYAMNWVRQAPGKGLEWVSAINSNGDSTYYPDTVKDRFTISRDNSKNTLYLQMNSLRAEDTAVYYCARDRRAGYFDYWGQGTLVTVSS
VL: DIVLTQPPSASGTPGQRVTISCSGSRDNIGKNYVSWYQQLPGTAPKLLIYRNNQRPSGVPDRFSGSKSGTSASLAISGLRSEDEADYYCSAWDTSLNAYVFGPGTQLTVL
notes: also called mAb-B7; anti-EspB antibody
signal for EPEC WT relative to the ΔespB strain: 36%
